Data on three molecules can be found in patent US20240124885A1 (MENDEL BIOTECHNOLOGY, published 2024).

Test [1] has as its target Flag::GmBBX62 (Glycine max). As to the kind of experiment: Luminex co-IP from soybean protoplast extract, anti-GFP capture, anti-FLAG detection.
Test [2] deals with Flag::GmBBX62 (Glycine max). As to the kind of experiment: reciprocal Luminex co-IP from soybean protoplast extract, anti-FLAG capture, anti-GFP detection.
Test [3] concerns the target T1, AtBBX32::GFP (Arabidopsis thaliana, UniProt Q9LJB7 1-225).
T1 construct: Fusion protein transiently expressed in soybean cotyledon protoplasts; also called AtBBX32 fused to GFP; not shown: GFP fusion partner
T1 sequence: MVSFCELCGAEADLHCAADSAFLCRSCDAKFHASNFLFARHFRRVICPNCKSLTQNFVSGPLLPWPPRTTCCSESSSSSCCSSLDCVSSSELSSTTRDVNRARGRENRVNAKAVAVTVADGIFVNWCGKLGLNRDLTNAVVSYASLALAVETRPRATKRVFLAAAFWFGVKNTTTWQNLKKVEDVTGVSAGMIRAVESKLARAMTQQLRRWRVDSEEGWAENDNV
As to the kind of experiment: Luminex co-IP from soybean cotyledon protoplast extract, both directions. As to the method:
(§1) Capture antibodies for GFP (MBL International, D153-3),Myc (Bethyl Laboratories cat #A190-104A)and FLAG (Bethyl Laboratories, A190-101A) were covalently coupled to carboxylated fluorescent microspheres (Luminex) according to the manufacturer's protocol Luminex two-step Carbodimide coupling protocol was modified as follows: 3.5×10⁶ beads were conjugated to […] of antibody and resuspended in coupling buffer containing 100 mM MES pH 6. Biotinylated antibodies for GFP (Abcam, ab6658), Myc (Bethyl Laboratories cat #A190-104B)and FLAG (Bethyl laboratories, A190-101B) were used for detection of interacting proteins in the miniaturized sandwich immunoassay. NeutrAvidin R-phycoerythrin was used as the reporter assay reagent (Invitrogen, A2660).
To assess the potential interaction between AtBBX32 and GmBBX39, two experiments were conducted consisting of a total of three repetitions (exp. 1, n=1; exp. 2, n=2). BBX32::GFP was co-expressed with FLAG::GmBBX39 in soybean cotyledon protoplasts. Expression analyses on one replicate of each treatment using either Luminex (BBX32::GFP) or Western blot (FLAG::BBX39) detection confirmed that each protein was expressed at detectable levels (data not shown). When co-expressed in protoplasts, BBX32::GFP and FLAG::BBX39 co-precipitated with either anti-GFP or anti-FLAG beads (FIG. 17).

The target of test [4] is T1, AtBBX32::GFP. As to the kind of experiment: Luminex co-IP, anti-GFP and anti-Myc capture. On the procedure: Luminex co-IP assays were performed on extracts from soybean cotyledon protoplasts co-expressing AtBBX32 fused to GFP and GmBBX39 fused to the Myc epitope. A: IP with anti-GFP, detection with anti-Myc. B: IP with anti-Myc, detection with anti-GFP. MFI stands for Median Fluorescence Intensity. * denotes p<0.001.
as §1

B1: AtBBX32::GFP (protein, not shown: large carriers)
chain: T1 sequence
B1 showed a fold increase of median fluorescence intensity (MFI) over controls in test [1] of 6 fold. The fold increase of fluorescence intensity over controls in test [2] turned out to be 5 fold.

B2: FLAG::GmBBX39 (other)
chain: MKIQCDVCNKHEASVFCTADEAALCDGCDHRVHHANKLASKHQRFSLLRPSPKQHPLCDICQERRAFTFCQQDRAILCKECDVSIHSANEHTLKHDRFLLTGVKLSASAMLRSSETTSDSNSNPSLLNFSHQTTLLPPSSTTTTTTSNNNNNKVAVEGTGSTSASSISEYLIETLPGWQVEDFLDSYSVPFGFCKNDEVLPRFDGEMEGHLSSFSTENMGIWVPQAPPTLMCSSQMDRVIVHGETNIKGSSRSRLKDDNFTVPQISPPSNSKRARFLW
notes: Co-expressed with BBX32::GFP in soybean cotyledon protoplasts; also called FLAG::BBX39; not shown: FLAG tag
As for B2, in the test with AtBBX32::GFP [3], the binding result is on record as “binds”.

B3: GmBBX39 fused to the Myc epitope (other, not shown: small tags and cut ends)
chain: B2 chain
Consider B3, for which the binding result with AtBBX32::GFP [4] is recorded as “binds”.
